Data reported in FireProtDB (doi:10.1021/bi962163z).

B1: Annexin A5, P08758 (parent)
chain: MAQVLRGTVTDFPGFDERADAETLRKAMKGLGTDEESILTLLTSRSNAQRQEISAAFKTLFGRDLLDDLKSELTGKFEKLIVALMKPSRLYDAYELKHALKGAGTNEKVLTEIIASRTPEELRAIKQVYEEEYGSSLEDDVVGDTSGYYQRMLVVLLQANRDPDAGIDEAQVEQDAQALFQAGELKWGTDEEKFITIFGTRSVSHLRKVFDKYMTISGFQIEETIDRETSGNLEQLLLAVVKSIRSIPAYLAETLYYAMKGAGTDDHTLIRVMVSRSEIDLFNIRKEFRKNFATSLYSMIKGDTSGDYKKALLLLCGEDD

Variants of: B1
Details: Homo sapiens; pH 8; Thermal; DSC; Tris 50 mM; KCl 100 mM; reversible: no; structure 1AVR; whole UniProt chain shown
For MAQVLRGTVTDFPGFDGRADAETLRKAMKGLGTDEESILTLLTSRSNAQRQEISAAFKTLFGRDLLDDLKSELTGKFEKLIVALMKPSRLYDAYELKHALKGAGTNEKVLTEIIASRTPEELRAIKQVYEEEYGSSLEDDVVGDTSGYYQRMLVVLLQANRDPDAGIDEAQVEQDAQALFQAGELKWGTDEEKFITIFGTRSVSHLRKVFDKYMTISGFQIEETIDRETSGNLEQLLLAVVKSIRSIPAYLAETLYYAMKGAGTDDHTLIRVMVSRSEIDLFNIRKEFRKNFATSLYSMIKGDTSGDYKKALLLLCGEDD [E17G], the Tm was 52.8 °C, the “unfolding enthalpy (calorimetric)” value was 164 kcal/mol and the “unfolding enthalpy (van 't Hoff)” value was 173 kcal/mol.
